Data: patent publication US20130052733A1

Target: mAb LGIII 147.4.1
Assay: direct ELISA, capture by mAb LG III 147.4.1, detection with FL119

## HLA-A*1101/LMP2340-349-fused β2m (from UniProt P61769 21-119) (peptide-MHC)
  concentration at which absorbance is saturated: 4 nCM
